The values below come from paper PMC10689437.

This test has as its target SARS-CoV-2 non-structural protein 3 (nsp3), released from the expressed HA-nsp3-4-V5 polyprotein (SARS-CoV-2). The test is described as follows: cryo-EM structure.

One may read the stoichiometry N as the number of molecules, sites or subunits per partner or assembly. For “SARS-CoV-2 non-structural protein 3 (nsp3), released from the expressed HA-nsp3-4-V5 polyprotein (natural protein)”, the stoichiometry N worked out at 6.
